± gives the uncertainty stated by the source.
Assay: protein stability index of a GFP-peptide fusion (yeast GPS) (PSI 1-4); higher = more stable; sorted into four equal gates, so the index is relative within each strain
In short: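 Each library plasmid carries Cherry plus GFP with a tiled 17-residue yeast protein peptide fused downstream, and the pooled library was carried in yeast. Mid-log cultures in leucine-free medium were sorted into four equal gates by GFP/Cherry ratio. Reads from Illumina sequencing of PCR-amplified plasmids from each gate were assigned to strains by barcodes. Per peptide, the protein stability index was computed as the summed products of gate read frequency and gate number.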

Row | Sequence | protein stability index (doa10∆) | protein stability index (pdr5∆) | protein stability index (san1∆) | protein stability index (ubr1∆)
1 | FGNSSPQLTFTHVANFM [YML103C/NUP188] | 2.97 ± 0.096 | 3.03 ± 0.08 | 3.04 ± 0.054 | 2.92 ± 0.052
2 | LTSSKSVIVSQFCAFDS [SIN4] | 2 ± 0.066 | 2.14 ± 0.06 | 1.98 ± 0.1 | 1.64 ± 0.066
3 | LDTQLITLLPSSLKESS [SNF12] | 2.89 ± 0.24 | – | – | –
4 | KFQETLLRQKIEQCKHP [ISW2] | 1.34 ± 0.068 | 1.47 ± 0.068 | 1.24 ± 0.13 | 1.21 ± 0.063
5 | LKNPEIFQRVGIKPPKG [RPT4] | 2.13 ± 0.12 | 2.18 ± 0.22 | 2.45 ± 0.12 | 2.31 ± 0.18
6 | LNVQVWHIEETGEWFSS [ITC1] | 1.83 ± 0.051 | 2.03 ± 0.05 | 2.39 ± 0.059 | 2.41 ± 0.043
7 | NLSSNVNFTEIGGLIPQ [YCS4] | 2.77 ± 0.071 | 2.46 ± 0.073 | 2.49 ± 0.08 | 2.47 ± 0.059
8 | YLLEELESYLIVHHPYQ [SSN8] | 2.56 ± 0.058 | 2.45 ± 0.06 | 2.43 ± 0.056 | 2.36 ± 0.044
9 | QLSKAAKAAAALAGGKK [RPS25A] | 1.7 ± 0.057 | 1.86 ± 0.067 | 1.82 ± 0.08 | 1.77 ± 0.047
10 | QINKAQILENYNALFQQ [YJL039C/NUP192] | 2.81 ± 0.068 | 3.12 ± 0.058 | 2.73 ± 0.065 | 3.03 ± 0.047
11 | IENMTKEKVSNGGVGVD [FAS2] | 3.23 ± 0.088 | 3.16 ± 0.1 | 3.33 ± 0.087 | 3.11 ± 0.063
12 | VTKWTNQLTESASHFEQ [YJL041W/NSP1] | 2.85 ± 0.13 | 3.19 ± 0.099 | 3.16 ± 0.091 | 2.83 ± 0.098
13 | KEDSTIQDSNGDVKNME [SWI3] | 3.09 ± 0.11 | 3.38 ± 0.087 | 2.71 ± 0.093 | 3.17 ± 0.058
14 | KYRQTKLSKEERAARVA [RPL5] | 2.7 ± 0.11 | 3.05 ± 0.071 | 2.97 ± 0.13 | 2.65 ± 0.07
15 | NETIIDNFSPHQNVIIG [SMC3] | – | 2.56 ± 0.17 | 2.29 ± 0.13 | –
16 | KDLQWLEFARITPMNDD [SIN4] | 2.94 ± 0.1 | 3.19 ± 0.088 | 3.14 ± 0.055 | 3.33 ± 0.097
17 | LMMVEKVPDSTYDMVGG [RPT6] | 2.6 ± 0.081 | 2.98 ± 0.071 | 2.84 ± 0.069 | 3.01 ± 0.068
18 | FAGVASKKVTSGVPRLK [RPO21] | 3.03 ± 0.2 | 3.08 ± 0.2 | – | –
19 | AQFYLGKRIAYVYRASK [RPL33A] | 1.81 ± 0.068 | 1.62 ± 0.076 | 1.36 ± 0.096 | 1.74 ± 0.069
20 | KAKVEEMNNIIAASRRH [RPL36A] | 2.85 ± 0.084 | 3.25 ± 0.075 | 3.19 ± 0.068 | 3.13 ± 0.072
21 | KGLVSQQLDSFNQFVDY [RPB2] | 2.64 ± 0.077 | 2.52 ± 0.1 | 2.41 ± 0.078 | 2.6 ± 0.066

Row | Sequence | protein stability index (doa10∆) | protein stability index (pdr5∆) | protein stability index (san1∆) | protein stability index (ubr1∆)
22 | SLAWSADGQTLFAGYTD [ASC1] | 2.66 ± 0.08 | 3.05 ± 0.091 | 2.7 ± 0.075 | 3.09 ± 0.1
23 | EVDVCDKCGLMGYSGWC [RET1] | 2.15 ± 0.098 | 2.73 ± 0.086 | 2.32 ± 0.19 | 2.39 ± 0.088
24 | NGQEQQGPVKNTQLHGP [RGR1] | 3.02 ± 0.077 | 3.12 ± 0.057 | 3.05 ± 0.052 | 3.1 ± 0.044
25 | RTHFKRMRFPPFDDDEP [PRP8] | 2.65 ± 0.042 | 3.03 ± 0.047 | 2.91 ± 0.044 | 2.77 ± 0.035
26 | KTEYVLNDLNHLLVQLQ [REC8] | – | 3.02 ± 0.25 | – | 3.02 ± 0.094
27 | PSVAAEYVYFFNNTSVI [RPC40] | 2.09 ± 0.056 | 1.48 ± 0.057 | 1.54 ± 0.088 | 1.79 ± 0.039
28 | EREPVPLGILHIPICVT [RRP45] | 1.81 ± 0.077 | 1.88 ± 0.06 | 1.47 ± 0.19 | 1.95 ± 0.059
29 | VGVVFGSGAANENPYNN [COR1] | 3.24 ± 0.15 | 3.23 ± 0.088 | 3.21 ± 0.087 | 3.07 ± 0.12
30 | TLKIHLKKFLQEKMDPN [IRR1] | 2.86 ± 0.1 | 3.01 ± 0.08 | 3.08 ± 0.084 | 2.82 ± 0.099
31 | PVNTGVLHVSAKGKSGV [RRP40] | 2.48 ± 0.1 | 2.1 ± 0.097 | 2.62 ± 0.14 | 2.64 ± 0.13
32 | NRIIKADDHASVQINVA [RPS21A] | 2.89 ± 0.055 | 3.05 ± 0.052 | 2.99 ± 0.052 | 3.11 ± 0.039
33 | DNYFNLQLNEAEEFVAG [SMX3] | 2.76 ± 0.16 | 2.8 ± 0.16 | 2.5 ± 0.1 | 3.12 ± 0.12
34 | QRSNISTAIKSLVALGI [CDC53] | 1.86 ± 0.047 | 2.82 ± 0.054 | 2.82 ± 0.049 | 2.48 ± 0.037
35 | AMTIYWDDHTKKPLSMA [CDC53] | 2.87 ± 0.077 | 2.67 ± 0.091 | 2.69 ± 0.048 | 2.85 ± 0.062
36 | NLEFNYTKPYPNFEASF [SMC2] | 2.76 ± 0.09 | 2.21 ± 0.1 | 2.43 ± 0.15 | 2.74 ± 0.13
37 | EYAALASLADVMSIESL [FAS1] | 3.07 ± 0.069 | 3.11 ± 0.068 | 3.14 ± 0.069 | 3.07 ± 0.053
38 | ELMAMNITPRLYTDRSR [RPB2] | 1.91 ± 0.12 | 1.68 ± 0.074 | 1.23 ± 0.13 | 1.96 ± 0.074
39 | TLVAQNLKQANNVAYGK [SMC4] | 2.8 ± 0.1 | 2.92 ± 0.089 | 2.87 ± 0.062 | 3 ± 0.067
40 | RHFWGLRVRGQHTKTTG [RPS18A] | 1.81 ± 0.062 | 1.99 ± 0.087 | 1.77 ± 0.12 | 2.16 ± 0.056
41 | VRTNRFDIIEESFKGLQ [ECM29] | 2.6 ± 0.099 | 2.47 ± 0.13 | 2.18 ± 0.12 | 2.26 ± 0.1
42 | GKPSFVFGASDKQAEGT [YOR098C/NUP1] | 3.33 ± 0.13 | 3.07 ± 0.12 | 3.07 ± 0.12 | 3.29 ± 0.087

Source: the supplement of paper PMC9732359
